How the values were obtained:
[1] = target: C30-His6 (short form of SafA made by internal translation of the safA mRNA) (Bacillus subtilis); assay: SEC; purified C30-His6 applied to a size exclusion column at 3.5 mg/ml; eluted as a main single sharp peak; mass by elution position
[2] = target: C30-His6 (short form of SafA made by internal translation of the safA mRNA) (Bacillus subtilis); assay: SEC-SAXS; SEC peak fractions of C30; synchrotron SEC-SAXS at BM29 ESRF with in-line HPLC; in the absence of Tgl
[3] = target: C30-His6 (short form of SafA made by internal translation of the safA mRNA) (Bacillus subtilis); assay: SDS-PAGE of the purified protein (species resistant to denaturation); purified C30 without Tgl or at time 0 of the cross-linking assays; 37°C, Tris-HCl 0.1 M, pH 8.0; 10% SDS-PAGE, Coomassie

Substance: C30-His6 (short form of SafA made by internal translation of the safA mRNA) (natural protein)
- stoichiometry N [1]: 6
- stoichiometry N [2]: 6
- stoichiometry N [3]: 2

— paper PMC6490927
